Test results reported in patent US20070185028A1, “Compositions and methods for treatment of protein misfolding and protein aggregation diseases” (priority 2004, published 2007).
Blank lines part the entries; values can stand above or below the sequence they belong to.

Tests used:
α-synuclein = biological target: T1, α-synuclein (Homo sapiens, UniProt P37840); test: α-synuclein fibrillation ThT assay; assay type: biochemical; details: for change of ThT fluorescence of α-synuclein: concentration increased to 46 μM
T1 construct: purchased rPeptide
Procedure: The effect of the five αB crystallin peptides, ST, DR, HG, LT, and ER on as synuclein fibrillation was measured using the ThT fluorescence assay (FIG. 28). The formation and inhibition of α-synuclein fibrils was qualitatively verified by fluorescence and bright-field microscopy. The concentration of the peptides was varied relative to α-synuclein to establish a concentration curve. In addition, the effect of a control neuropeptide (AT1) with no α-synuclein fibril inhibition activity was measured and compared to the effect of the αB crystallin peptides on α-synuclein fibrillation. The ThT fluorescence of 46 μM α-synuclein alone incubated at 37° C. for 96 hrs, increased from ˜9,500 to ˜16,000 RFU. Addition of 9.2 μM αB crystallin peptides ST, DR, HG, LT, and ER decreased the ThT fluorescence of α-synuclein by 32-100%. When the concentration of the αB crystallin peptides was increased to 46 μM, the ThT fluorescence of α-synuclein decreased with the αB crystallin peptides, DR, HG, LT, and ER, while the ThT fluorescence increased with the ST peptide. […] The negative control peptide AT1 had no effect on α-synuclein fibrillation even at a concentration as high as 460 μM. All five αB crystallin peptides inhibited α-synuclein fibrillation at sub-stoichometric and stoichometric concentrations (9.2 μM and 46 μM).
The Thioflavin T (ThT) fluorescence of 46 μM α-synuclein in the presence of varying concentrations of αB crystallin peptides and controls was measured. […] When the concentration of the peptides was increased to […] (1:1::peptide:α-synuclein), the αB crystallin peptides DR, HG, LT and ER decreased the ThT fluorescence by 51-100%, while the ST peptide had no effect on ThT fluorescence. When the concentration of the peptides was increased further to […] (10:1::peptide:α-synuclein), the five αB crystallin peptides decreased the ThT fluorescence by 40-100%. […] The formation and inhibition of β2-microglobulin fibrils was verified microscopically.
α-synuclein fibrillation ThT assays were performed as described previously. Zhu et al., J Biol Chem 279:26846-57, 2004; Dedmon et al., J Biol Chem 280:14733-40, 2005. Peptides were dissolved to 2 mM in 0.25% DMSO and diluted accordingly, while α-synuclein was dissolved in 20 mM Tris-Cl, 100 mM NaCl, pH 7.4. For the 5:1::peptide: α-synuclein assay, 5 μL of 700 μM peptide or APS was mixed with 5 μL of 140 μM α-synuclein, 17 μt of 20 mM Tris-Cl, 100 mM NaCl, pH 7.4 and 3 μL of 1 mM ThT. For the 1:1::peptide:α-synuclein assay, 5 μL of 140 μM peptide was mixed with 5 μL of 140 μM α-synuclein, 17 μl of 20 mM Tris-Cl, 100 mM NaCl, pH 7.4 and 3 μL of 1 mM ThT. For the 1:5::peptide:α-synuclein assay, 5 μL of 28 μM peptide was mixed with 5 μL of 140 μM α-synuclein, and […] of 20 mM Tris-Cl, 100 mM NaCl, pH 7.4 and 3/L of 1 mM ThT. ThT fluorescence was measured using a Perkin Elmer Victor^3 V plate reader. Assays were performed in 384-well fluorescence plates in duplicates or triplicates. Samples were incubated at 37° C. for a total of 96 hours. ThT fluorescence was measured at 0, 24, 48, and 96 hours. The effect of the peptides and APS was calculated as percentage fibril formation relative to α-synuclein alone (100%) at the end of 96 hours.

bovine βH crystallin = test: αB crystallin protein pin array with βH crystallin; assay type: binding; details: unheated βH crystallin, 23° C.; similar maxima pre-heated 45° C.
Description: Synthesis of Pins, binding and detection of peptides binding to ligand proteins. The αB crystallin protein pin array was used to measure the interaction between peptides and chaperone target proteins including bovine βH crystallin, human γD crystallin, equine alcohol dehydrogenase (ADH) and porcine citrate synthase (CS) as described (FIG. 12). Ghosh and Clark, Protein Sci 14: 684-95, 2005.
Refer to the methods section for detailed protocols. The absorbance corresponding to the blue coloration in each well was measured at λ=450 nm and plotted against the amino acid sequence of the corresponding peptide in that well (FIGS. 13 and 14). Wells containing peptides that have strong interactions with target proteins are dark blue and wells containing peptides that have weak or no interaction with target proteins are light blue or clear.
The purity of the target proteins used in the pin array assays, bovine βH crystallin, human γD crystallin, equine alcohol dehydrogenase (ADH) and porcine citrate synthase (CS) were determined to be >90% by SDS-PAGE. In addition, primary antibodies for each target protein were specific to that target protein and consequently contaminating proteins that may bind to the peptides will not be detected. Eighty-four sequential and overlapping peptide fragments corresponding to residues 1-175 of human αB crystallin were synthesized employing a simultaneous peptide synthesis strategy developed by Geysen, called Multipin Peptide Synthesis (Mimotopes, San Diego, Calif.). Geysen, Southeast Asian J Trop Med Public Health 21: 523-33, 1990; Chin et al., J Org Chem 62: 538-539, 1997. Peptides were immobilized on derivatized polyethylene pins arranged in a microtiter ELISA plate format. Each peptide was eight amino acids in length and consecutive peptides were offset by two amino acids. All peptides were bound covalently to the surface of the plastic pins. The first peptide was 1MDIAIHHP8 and the last peptide was 168PAVTAAPK175 for human αB crystallin.
Ghosh and Clark, Protein Sci 14: 684-95, 2005. […] The intensity of the blue color in the wells was measured at 450 nm using an ELISA plate-reader (BioTek, Winooski, Vt.). The intensity of the blue color (plotted on the X-axis) was a measure of the interaction between αB crystallin peptides (plotted on the Y-axis) and target proteins. To measure the effect of temperature on the interactions between interactive peptides and the target proteins, the target proteins were heated in a water-bath at 45° C. for fifteen minutes prior to use. Pin arrays are unable to differentiate between monomers, dimers or oligomers of target proteins that exist in solution. Instead, pin arrays are very sensitive detectors of interactions between individual peptides and the entire population (monomers, dimers or oligomers) of specific target proteins that may exist in solution under specific conditions. Each target protein was assayed two to five times. A single pin array was used for all experiments and no change in interactions was observed after more than thirty repetitions. The last three peptides of the protein pin array, 163REEKPAVT170, 165EKPAVTAA172, 167PAVTAAPK174, correspond to the epitope (163REEKPAVTAAPKK175) recognized by the primary antibody for human αB crystallin. A positive reaction is observed for these three peptides in the absence of human αB crystallin as the ligand due to direct binding of the anti-human αB crystallin antibody to these three peptides. The loss of efficiency for the pin array was measured using this assay. The loss of efficiency for the pin array was determined to be <5% by after more than 30 assays.
Protein pin arrays enabled the identification of interactive sequences necessary for the chaperone activity of human αB crystallin. Interactions between immobilized 8-mer human αB crystallin peptides and unheated and pre-heated βH crystallin, a natural protein constitute of lens cells, were measured as absorbances at λ=450 nm at 23° C. […]

Sequence: DRFSVNLDVKHFS
effect on α-synuclein fibril formation, overall (α-synuclein): most effective inhibitor
change of ThT fluorescence of α-synuclein (α-synuclein): decreased

Sequence: FSVNLDVK [Peptide 38]
absorbance at 450 nm, interaction with βH crystallin (bovine βH crystallin): Maximum absorbances

Sequence: HGKHEERQDE
effect on α-synuclein fibril formation, overall (α-synuclein): most effective inhibitor
change of ThT fluorescence of α-synuclein (α-synuclein): decreased

Sequence: LTITSSLS [Peptide 66]
absorbance at 450 nm, interaction with βH crystallin (bovine βH crystallin): Maximum absorbances

Sequence: WIRRPFFP [Peptide 5]
absorbance at 450 nm, interaction with βH crystallin (bovine βH crystallin): Maximum absorbances

Continued, values first:

change of ThT fluorescence of α-synuclein (α-synuclein): decreased
Sequence: ERTIPITRE

change of ThT fluorescence of α-synuclein (α-synuclein): decreased
Sequence: LTITSSLSSDGV

decrease in ThT fluorescence of α-synuclein (α-synuclein; 16 μM (1:1::peptide:α-synuclein) as printed): no effect
change of ThT fluorescence of α-synuclein (α-synuclein): increased
Sequence: STSLSPFYLRPPSFLRAP
